# Ends that are not written are not given here. * marks the point of attachment. Biotin = O=C1N[C@H]2[C@H](CS[C@H]2CCCCC(=O)*)N1
# T1: GST-CASK PDZ domain fusion protein (Homo sapiens, UniProt O14936 486-575)
# T1 construct: also called Homo sapiens CASK protein
# T1 sequence: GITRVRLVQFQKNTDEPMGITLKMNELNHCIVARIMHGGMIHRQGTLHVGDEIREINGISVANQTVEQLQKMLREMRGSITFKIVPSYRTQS
# T2: GST-TAX-IP43 PDZ domain fusion protein (human, UniProt Q13884 109-180)
# T2 construct: also called TAX43; not shown: glutathione S-transferase encoded by vector pGEX-3X (Pharmacia)
# T2 sequence: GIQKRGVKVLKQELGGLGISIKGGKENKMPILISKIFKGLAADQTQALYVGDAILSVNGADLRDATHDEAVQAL
# T3: GST-TAX-IP2 PDZ domain fusion protein (human, UniProt O14908 129-216)
# T3 construct: also called TAX-1P2; TAX2; not shown: glutathione S-transferase encoded by vector pGEX-3X (Pharmacia)
# T3 chain: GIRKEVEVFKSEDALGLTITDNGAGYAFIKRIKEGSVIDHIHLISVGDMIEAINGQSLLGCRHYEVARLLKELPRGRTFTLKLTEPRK
# T4: GST-PTN-4 PDZ domain fusion protein (Homo sapiens (Human), UniProt P29074 517-605)
# T4 construct: also called protein-tyrosine phosphatase meg1; not shown: glutathione S-transferase encoded by vector pGEX-3X (Pharmacia)
# T4 sequence: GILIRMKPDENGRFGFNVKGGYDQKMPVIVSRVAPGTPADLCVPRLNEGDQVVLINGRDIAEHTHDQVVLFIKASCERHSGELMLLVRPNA
# T5: GST-MPP1 PDZ domain fusion protein (Homo sapiens (Human), UniProt Q00013 67-152)
# T5 construct: also called p55; 55 Kd erythrocyte membrane protein; not shown: glutathione S-transferase encoded by vector pGEX-3X (Pharmacia)
# T5 sequence: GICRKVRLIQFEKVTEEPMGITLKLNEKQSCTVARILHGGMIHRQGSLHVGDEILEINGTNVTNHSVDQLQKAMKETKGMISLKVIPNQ
# T6: GST-prIL16 fusion protein (PDZ domains 1-2) (Homo sapiens (Human), UniProt Q14005 1111-1324)
# T6 construct: also called putative interleukin 16 precursor; not shown: glutathione S-transferase encoded by vector pGEX-3X (Pharmacia)
# T6 sequence: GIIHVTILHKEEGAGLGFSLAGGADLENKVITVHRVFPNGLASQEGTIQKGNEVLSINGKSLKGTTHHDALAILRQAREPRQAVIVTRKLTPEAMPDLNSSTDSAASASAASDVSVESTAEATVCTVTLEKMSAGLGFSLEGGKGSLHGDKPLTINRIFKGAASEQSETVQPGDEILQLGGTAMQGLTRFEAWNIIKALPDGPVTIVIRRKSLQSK
# T7: GST-cytohesin binding protein PDZ domain fusion protein (Homo sapiens (Human), UniProt O60759 74-165)
# T7 construct: also called CBP; not shown: glutathione S-transferase encoded by vector pGEX-3X (Pharmacia)
# T7 sequence: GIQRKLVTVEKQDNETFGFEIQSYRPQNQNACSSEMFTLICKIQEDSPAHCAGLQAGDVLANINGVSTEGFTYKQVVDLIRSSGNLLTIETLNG
# T8: GST-AF6 PDZ domain fusion protein (Homo sapiens (Human), UniProt P55196 1001-1093)
# T8 construct: also called af-6 protein; not shown: glutathione S-transferase encoded by vector pGEX-3X (Pharmacia)
# T8 sequence: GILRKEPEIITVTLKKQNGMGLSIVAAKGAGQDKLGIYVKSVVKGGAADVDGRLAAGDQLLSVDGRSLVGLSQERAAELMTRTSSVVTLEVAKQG
# T9: GST-RGS12 PDZ domain fusion protein (human, UniProt O14924 17-85)
# T9 construct: also called human regulator of G-protein signalling 12; not shown: glutathione S-transferase encoded by vector pGEX-3X (Pharmacia)
# T9 sequence: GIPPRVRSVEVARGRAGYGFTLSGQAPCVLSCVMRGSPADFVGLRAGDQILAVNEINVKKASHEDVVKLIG
# T10: GST-mouse syntenin fusion protein (Mus musculus, UniProt O08992 108-286)
# T10 construct: also called Mus musculus Syntenin; not shown: glutathione S-transferase encoded by vector pGEX-3X (Pharmacia)
# T10 chain: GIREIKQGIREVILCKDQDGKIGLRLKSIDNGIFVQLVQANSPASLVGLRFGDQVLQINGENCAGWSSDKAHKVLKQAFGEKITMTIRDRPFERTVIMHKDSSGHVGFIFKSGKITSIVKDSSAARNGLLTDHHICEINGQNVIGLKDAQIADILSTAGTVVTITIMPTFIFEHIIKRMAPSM
# T11: X11β PDZ-GST fusion protein (Rattus norvegicus (Rat), UniProt O35431 560-745)
# T11 construct: Order of GST and PDZ part and limits not seen in the excerpts
# T11 chain: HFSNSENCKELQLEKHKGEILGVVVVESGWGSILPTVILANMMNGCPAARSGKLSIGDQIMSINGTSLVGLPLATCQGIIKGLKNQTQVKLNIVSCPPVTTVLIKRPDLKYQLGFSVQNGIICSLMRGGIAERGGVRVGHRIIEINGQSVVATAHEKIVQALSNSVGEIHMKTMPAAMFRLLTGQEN
# T12: K858 PDZ-GST fusion protein (Homo sapiens (Human), UniProt Q8WWI1 1038-1131)
# T12 construct: Order of GST and PDZ part and limits not seen in the excerpts
# T12 sequence: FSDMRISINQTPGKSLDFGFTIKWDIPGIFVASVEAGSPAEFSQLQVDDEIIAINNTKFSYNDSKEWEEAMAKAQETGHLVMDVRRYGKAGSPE
# T13: ConEn PDZ-GST fusion protein (Homo sapiens (Human), UniProt Q969H4 193-287)
# T13 construct: The label ConEn is not explained in the excerpts
# T13 sequence: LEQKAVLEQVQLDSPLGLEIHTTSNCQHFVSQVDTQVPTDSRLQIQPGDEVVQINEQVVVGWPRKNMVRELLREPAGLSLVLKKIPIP
# B1: CC CKR-4 C-terminal peptide AA44L (peptide)
# peptide: Biotin-DTPSSSYTQSTMDHDLHDAL
# notes: Only the last four residues are seen in the excerpts
# Target: T1, GST-CASK PDZ domain fusion protein
# Assay: A/G assays
row,binding result,Binder
1,no binding,B1
2,no binding,"Biotin-STNHSIGSTQSTPCSTSSMA (also called CD105 (endoglin)) [CD105 C-terminal peptide AA16L, biotinylated]"
3,no binding,"Biotin-ARHRVTSYTSSSVNVSSNL [CDW128A (IL8RA) C-terminal peptide AA29.1L, biotinylated]"
4,no binding,"Biotin-TSGTGHNQTRALRASESGI (also called CD97 (CD55L)) [CD97 C-terminal peptide AA14L, biotinylated]"

# Target: T2, GST-TAX-IP43 PDZ domain fusion protein
# Assay: A/G assays
row,binding result,Binder
1,no binding,B1
2,no binding,"Biotin-STNHSIGSTQSTPCSTSSMA (also called CD105 (endoglin)) [CD105 C-terminal peptide AA16L, biotinylated]"
3,no binding,"Biotin-ARHRVTSYTSSSVNVSSNL [CDW128A (IL8RA) C-terminal peptide AA29.1L, biotinylated]"
4,no binding,"Biotin-TSGTGHNQTRALRASESGI (also called CD97 (CD55L)) [CD97 C-terminal peptide AA14L, biotinylated]"

# Target: T3, GST-TAX-IP2 PDZ domain fusion protein
# Assay: A/G assays
row,binding result,Binder
1,no binding,B1
2,no binding,"Biotin-STNHSIGSTQSTPCSTSSMA (also called CD105 (endoglin)) [CD105 C-terminal peptide AA16L, biotinylated]"
3,no binding,"Biotin-ARHRVTSYTSSSVNVSSNL [CDW128A (IL8RA) C-terminal peptide AA29.1L, biotinylated]"
4,no binding,"Biotin-TSGTGHNQTRALRASESGI (also called CD97 (CD55L)) [CD97 C-terminal peptide AA14L, biotinylated]"

# Target: T4, GST-PTN-4 PDZ domain fusion protein
# Assay: A/G assays
row,binding result,Binder
1,no binding,B1
2,no binding,"Biotin-STNHSIGSTQSTPCSTSSMA (also called CD105 (endoglin)) [CD105 C-terminal peptide AA16L, biotinylated]"
3,no binding,"Biotin-ARHRVTSYTSSSVNVSSNL [CDW128A (IL8RA) C-terminal peptide AA29.1L, biotinylated]"
4,no binding,"Biotin-TSGTGHNQTRALRASESGI (also called CD97 (CD55L)) [CD97 C-terminal peptide AA14L, biotinylated]"

# Target: T5, GST-MPP1 PDZ domain fusion protein
# Assay: A/G assays
row,binding result,Binder
1,no binding,B1
2,no binding,"Biotin-STNHSIGSTQSTPCSTSSMA (also called CD105 (endoglin)) [CD105 C-terminal peptide AA16L, biotinylated]"
3,no binding,"Biotin-ARHRVTSYTSSSVNVSSNL [CDW128A (IL8RA) C-terminal peptide AA29.1L, biotinylated]"
4,no binding,"Biotin-TSGTGHNQTRALRASESGI (also called CD97 (CD55L)) [CD97 C-terminal peptide AA14L, biotinylated]"

# Target: T6, GST-prIL16 fusion protein (PDZ domains …)
# Assay: A/G assays
row,binding result,Binder
1,no binding,B1
2,no binding,"Biotin-STNHSIGSTQSTPCSTSSMA (also called CD105 (endoglin)) [CD105 C-terminal peptide AA16L, biotinylated]"
3,no binding,"Biotin-ARHRVTSYTSSSVNVSSNL [CDW128A (IL8RA) C-terminal peptide AA29.1L, biotinylated]"
4,no binding,"Biotin-TSGTGHNQTRALRASESGI (also called CD97 (CD55L)) [CD97 C-terminal peptide AA14L, biotinylated]"

# Target: T7, GST-cytohesin binding protein PDZ …
# Assay: A/G assays
row,binding result,Binder
1,no binding,B1
2,no binding,"Biotin-STNHSIGSTQSTPCSTSSMA (also called CD105 (endoglin)) [CD105 C-terminal peptide AA16L, biotinylated]"
3,no binding,"Biotin-ARHRVTSYTSSSVNVSSNL [CDW128A (IL8RA) C-terminal peptide AA29.1L, biotinylated]"
4,no binding,"Biotin-TSGTGHNQTRALRASESGI (also called CD97 (CD55L)) [CD97 C-terminal peptide AA14L, biotinylated]"

# Target: T8, GST-AF6 PDZ domain fusion protein
# Assay: A/G assays
row,binding result,Binder
1,no binding,B1
2,no binding,"Biotin-STNHSIGSTQSTPCSTSSMA (also called CD105 (endoglin)) [CD105 C-terminal peptide AA16L, biotinylated]"
3,no binding,"Biotin-ARHRVTSYTSSSVNVSSNL [CDW128A (IL8RA) C-terminal peptide AA29.1L, biotinylated]"
4,no binding,"Biotin-TSGTGHNQTRALRASESGI (also called CD97 (CD55L)) [CD97 C-terminal peptide AA14L, biotinylated]"

# Target: T9, GST-RGS12 PDZ domain fusion protein
# Assay: A/G assays
row,binding result,Binder
1,no binding,B1
2,no binding,"Biotin-STNHSIGSTQSTPCSTSSMA (also called CD105 (endoglin)) [CD105 C-terminal peptide AA16L, biotinylated]"
3,no binding,"Biotin-ARHRVTSYTSSSVNVSSNL [CDW128A (IL8RA) C-terminal peptide AA29.1L, biotinylated]"
4,no binding,"Biotin-TSGTGHNQTRALRASESGI (also called CD97 (CD55L)) [CD97 C-terminal peptide AA14L, biotinylated]"

# Target: T10, GST-mouse syntenin fusion protein
# Assay: A/G assays
row,binding result,Binder
1,no binding,B1
2,no binding,"Biotin-STNHSIGSTQSTPCSTSSMA (also called CD105 (endoglin)) [CD105 C-terminal peptide AA16L, biotinylated]"
3,no binding,"Biotin-ARHRVTSYTSSSVNVSSNL [CDW128A (IL8RA) C-terminal peptide AA29.1L, biotinylated]"
4,no binding,"Biotin-TSGTGHNQTRALRASESGI (also called CD97 (CD55L)) [CD97 C-terminal peptide AA14L, biotinylated]"

# Target: T11, X11β PDZ-GST fusion protein
# Assay: A/G assays
row,binding result,Binder
1,no binding,B1
2,no binding,"Biotin-STNHSIGSTQSTPCSTSSMA (also called CD105 (endoglin)) [CD105 C-terminal peptide AA16L, biotinylated]"
3,no binding,"Biotin-ARHRVTSYTSSSVNVSSNL [CDW128A (IL8RA) C-terminal peptide AA29.1L, biotinylated]"
4,no binding,"Biotin-TSGTGHNQTRALRASESGI (also called CD97 (CD55L)) [CD97 C-terminal peptide AA14L, biotinylated]"

# Target: T14, PICK1 PDZ-GST fusion protein (Bos taurus (Bovine), UniProt Q2T9M1 17-105)
# T14 construct: Order of GST and PDZ part and limits not seen in the excerpts
# T14 sequence (Q2T9M1 other isoform, or with tags, fused parts or gaps limits assumed): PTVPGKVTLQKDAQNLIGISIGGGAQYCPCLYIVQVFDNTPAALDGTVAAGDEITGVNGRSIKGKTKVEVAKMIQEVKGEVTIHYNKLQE
# Assay: A/G assays
row,binding result,Binder
1,no binding,B1
2,no binding,"Biotin-STNHSIGSTQSTPCSTSSMA (also called CD105 (endoglin)) [CD105 C-terminal peptide AA16L, biotinylated]"
3,no binding,"Biotin-ARHRVTSYTSSSVNVSSNL [CDW128A (IL8RA) C-terminal peptide AA29.1L, biotinylated]"
4,no binding,"Biotin-TSGTGHNQTRALRASESGI (also called CD97 (CD55L)) [CD97 C-terminal peptide AA14L, biotinylated]"

# Target: T15, K316 PDZ-GST fusion protein (Homo sapiens (Human), UniProt Q14CM0 72-159)
# T15 construct: Order of GST and PDZ part and limits not seen in the excerpts
# T15 sequence (Q14CM0 72-159 limits assumed): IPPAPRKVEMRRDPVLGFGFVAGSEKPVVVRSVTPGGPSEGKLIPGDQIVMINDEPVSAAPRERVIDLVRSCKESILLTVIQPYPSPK
# Assay: A/G assays
row,binding result,Binder
1,no binding,B1
2,no binding,"Biotin-STNHSIGSTQSTPCSTSSMA (also called CD105 (endoglin)) [CD105 C-terminal peptide AA16L, biotinylated]"
3,no binding,"Biotin-ARHRVTSYTSSSVNVSSNL [CDW128A (IL8RA) C-terminal peptide AA29.1L, biotinylated]"
4,no binding,"Biotin-TSGTGHNQTRALRASESGI (also called CD97 (CD55L)) [CD97 C-terminal peptide AA14L, biotinylated]"

# Target: T12, K858 PDZ-GST fusion protein
# Assay: A/G assays
row,binding result,Binder
1,no binding,B1
2,no binding,"Biotin-STNHSIGSTQSTPCSTSSMA (also called CD105 (endoglin)) [CD105 C-terminal peptide AA16L, biotinylated]"
3,no binding,"Biotin-ARHRVTSYTSSSVNVSSNL [CDW128A (IL8RA) C-terminal peptide AA29.1L, biotinylated]"
4,no binding,"Biotin-TSGTGHNQTRALRASESGI (also called CD97 (CD55L)) [CD97 C-terminal peptide AA14L, biotinylated]"

# Target: T13, ConEn PDZ-GST fusion protein
# Assay: A/G assays
row,binding result,Binder
1,no binding,B1
2,no binding,"Biotin-STNHSIGSTQSTPCSTSSMA (also called CD105 (endoglin)) [CD105 C-terminal peptide AA16L, biotinylated]"
3,no binding,"Biotin-ARHRVTSYTSSSVNVSSNL [CDW128A (IL8RA) C-terminal peptide AA29.1L, biotinylated]"
4,no binding,"Biotin-TSGTGHNQTRALRASESGI (also called CD97 (CD55L)) [CD97 C-terminal peptide AA14L, biotinylated]"
